Laboratory results from article PMC12421842.

Biological target: T1, HicB (HicB-His) (Neisseria gonorrhoeae FA1090) (UniProt Q5F6D2)
T1 sequence: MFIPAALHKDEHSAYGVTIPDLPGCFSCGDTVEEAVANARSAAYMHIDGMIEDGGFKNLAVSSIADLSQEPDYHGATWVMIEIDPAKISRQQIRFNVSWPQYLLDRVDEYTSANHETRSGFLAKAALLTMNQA
Assay: competition
Details: EMSA: 20 mM HEPES pH 7.6, 1 mM EDTA, 10 mM (NH4)2SO4, 1 mM DTT, 0.2% Tween-20, 30 mM KCl, 1.25 ng/uL calf thymus DNA, 30 min at 30 C

“TTCACCCTTGCCTGTGCTGCCAAAGCAGCCATCGGCGGTTTTGCTTTCTGTTCCACTTTCCGTCGCGTTACCGCGCCCGGCCGTTAACCGGCATTCTACCCTGCGGAGCCCGGACTTTCCTCCCCGTAT (double strand) [rnpB fragment]” was tested, and the binding was “no binding”.
